The DeepSol protein solubility set

Assay: soluble on expression in E. coli; label from the status in PepcDB or PDB records

Row | Sequence | soluble on expression in E. coli
1 | MRSLADFEFNNAPLCDGMILASEMIRLDFPTQFVYDELERLVSLAQEEISQLLSQDEQLEKLLALFYGEWGFTDSRGVYRLSDALWLDKVLKKRQGSAVSLGAILLWIANRLDLPLVPVIFPTQLILRIESLEGEMWLINPFNGETLDEHTLEVWLKGNISPVAELFNEDLDEADNAEVIRKLLDTLKSSLMEERQMELALRVSEALLQFNPEDPYEIRDRGLIYAQLECEHVALTDLSYFVEQCPEDPISEMIRAQINTIAHKQIVLHLEHHHHHH | not soluble
2 | HPICEVSKVASHLEVNCDKRNLTALPPDLPKDTTILHLSENLLYTFSLATLMPYTRLTQLNLDRAELTKLQVDGTLPVLGTLDLSHNQLQSLPLLGQTLPALTVLDVSFNRLTSLPLGALRGLGELQELYLKGNELKTLPPGLLTPTPKLEKLSLANNNLTELPAGLLNGLENLDTLLLQENSLYTIPKGFFGSHLLPFAFLHGNPWLCNCEILYFRRWLQDNAENVYVWKQGVDVKAMTSNVASVQCDNSDKFPVYKYPGKGCPTLGDEGDTDLYDYYPEEDTEGDKVR | soluble
3 | MLVRLGYVAMTMNLKDSSPSGTVTVKTLAGLNEDETRLNKLRKVTAANLHNTLRILRYNKAYNISVYRFTSKLVPLATHPMVSHWDYVGEFRNEFKSLGDFVKENNFRVSAHPDHYTLLNSPSKEVFEASVRDLDYHVKLFEAMGLEDYKYKLVMHIGGLYKNKQTSVERFKENYAILPDRIRKRLIFENDDKIYTARDVLDICKELKVPMVLDVHHHNCVNNGERLEDMLKEIFDTWKDEYFPPKIHFSTPKSKENFRSHADEIDVNEFYRFLQIAKKLKKDFDVMIEAKNKDNALFKLSRELKTFDDIRWIDEGHFEIR | not soluble
4 | MPGHRITLTGEKQTLLITLYAKALDSRLDDSILHDRFAEEAVRQIDFDFSRVALGKGNERALAMRSHYFDQACREFLGRHPEGQVLNLGCGLDSRIYRVDPPAELPWFDLDYPEVMDLRERLYPPRAGAYRALRHSVDDDGWLQGVPRERPALVLAEGLMPYLRESQVRRLVERLVDHLGSGELLFDGYGRLGIMLLRLYPPLRETGAQVHWSIDDPRELERWHPALRFIEEVTDYDPQDVAKLPQSSRLMLPIYNGFAFLRRMGRLIRYRWPRV | not soluble
5 | MTPRSLVRIVGVVVATTLALVSAPAGGRAAHADPCSDIAVVFARGTHQASGLGDVGEAFVDSLTSQVGGRSIGVYAVNYPASDDYRASASNGSDDASAHIQRTVASCPNTRIVLGGYSQGATVIDLSTSAMPPAVADHVAAVALFGEPSSGFSSMLWGGGSLPTIGPLYSSKTINLCAPDDPICTGGGNIMAHVSYVQSGMTSQAATFAANRLDHAG | not soluble
6 | MAHHHHHHMSRNGELCLKKVIISYCPSNGAPNTRQFLATHLPHFHAKYPSVSIDLRPRLWPEMAITGVYRDGSERSYNTKNLSPMGIFLRLNNLVSTANDYDQPFCASHLHFQRRSVQGTWNPWLWNYETERRRTEAPQWRRKLSEKEWDYYVGQYSAQMKQEEDEIQRRVADRTCVQEQSTREVQERWKRHVVPRMQTDLEFNLSHFKRQHARGQLQQRPVTMGEYRLFSVPDPRELGQDAVDTMRRRESHNMEVWWRKRKEQLKPP | not soluble
7 | MAHHHHHHMPPKGQRSLNIAQPLSSSRAQSANAILRSAASAMATSGPAASKSSPRTSCFPRAFMSTGNARNEMEAYYEQLLSQDRVDGVDAFGKNGIHLLCKGLGIKPESFEMYTLIWKMGVTRGCCIPRADWLKTIYTYKIEQPMDLKLVLVEWVKESRGDSFTEFYNDLYDYIRGEEARLMPYGTAVEAWAVLFQNEPRIIPWIKWYSDIYRREVTRDVWRQIGIFLSAVPNIEAYNVEDRWSCAIDSYVEWCKVSG | not soluble
8 | MMSIFSVQTGSLVGTVHRYVKQPRQSWAYPIKQKSQTGTDNTKSALTLEKFTKPLTRKFSHDTICRKAPFVGVELQKPSATLTIMGKVHRQRQE | not soluble
9 | MGSDKIHHHHHHMNKKILIIDDNKMLGKLLAKKIQMTLDYEVDIAFGFAEAKELMNNDYFLAFVDLCLPDAPNGEVVDYVIEKKIPAIVLTASGDKATKEKFMDKDILDYIFKESETCIDEIISSIVKLNQYAKTKVIVAMSKLPERNEIKKILTQRQFNVLAAAHGEEAMSYLNDNNDVKLIIADVNMPVISGFELLTQVRERFSDDELGVILLGDHNDSFEANSFKNGVNEYLFKPLSKESFNCRLDRCLSYMDDKKFLSTYNVLDPVSGVKNYNALIDGIDDYFNEIATKDEEFAFAFLDIDNLQMINDEYGREVGDEVIKICANEIVNETKGRDLVGRYSAEKICILLKNISQERAIKIFSRIRVNIKKAGVLVNLDEVFFTASIGVVFGKSGDKIDSLADKASKILSQAKDNGKDRVEVCS | not soluble
10 | MSLRIRVPATTANLGPGFDSCGLALTLYLTLDIGAEADSWYIEHNIGGGIPHDETNVIIETALNLAPNLTPHHLVMTCDIPPARGLGSSSAAVVAGIELANTLAELNLSKEEKVRIAAEIEGHPDNVAPAVLGNWVVGAKLDGEDFYVRHLFPDCALIAFIPKAELLTSESRGVLPDTLPFKEAVQASSIANVMIAAILRNDMTLAGEMMERDLWHEKYRSQLVPHLAQIRDVAKNQGAYAACLSGAGPTVLVFAPRNLANKLQTSLQTLEIDADVLLLDVEGSGAEVFREGHHHHHH | soluble
11 | MGSDKIHHHHHHMTIFERSKKGRKAFRLPESDIPEYSLPDRFLRRTPPELPEVSEPDLVRHYTNLARKNYSVDLGIYPLGSCTMKYNPKLNEKAANLEGFREIHPYQPVETVQGSLRLMYELKKMLCEITGMDDMTLQPAAGAHGELTGMLIVREYFKNRGDTGRKKVLVPDSAHGTNPASASMVGFEVVEIKSKNGMVDVEDLKKLLDEEVAAVMLTNPNTLGLFEKDILKIAEMTHECGALLYYDGANLNAIMGKVRPGDMGFDIVHLNLHKTFSTPHGMGGPGSGPVGVKKHLVDFLPFPQVKKNGELYELFVPEKTIGRVRSFFGNFPVLVKAYTYILTMGRDGLERVSEMAVLNANYLKKKIEKFLEIPYNGFCMHEFVASAEKVFRETGVRTLDIAKRILDFGVHPPTVYFPLIVPEALMIEPTETENKETLDKYAEILERVVKEAYENPDALKNAPHNTPVRRVNEVLASKKPVFRWRG | not soluble
12 | MGSDKIHHHHHHMAEQENSKDLISVLWSGADVLRSKMDANEYKNYLLGIVFYKYLSDSFLIRVYDLINDEKPESLKVALEAYKNELKGEYANDLLDELKQDRKYVIEPELTYTCFAEDARNNCFNREQLQKAFNNIEQSGELFVDLFSDIDLYSSRLGAGDQKQSDTIAELIKVIDQADLLNSDGEILGDAYEYLIGQFASETGKKAGEFYTPQAVSKILTRIAITGQENVKGLSIYDPCMGSGSLLLNAKRYYKGDTNYIKYYGQELNMSTYNLARMNMFLHDVAAENQNLHHGDTLDADWPTGEETDFHMVLMNPPYSAKWSAASGFLQDERFSEYGVLAPKSKADYAFLLHGLYHLKSNGTMAIVLPHGVLFRGAAEGKIREKLLRSGNIYAVIGLPANLFYNTSIPTCIVVLKKHRDGRDVLFIDASKKFIKGKKQNEMSDEHIDEVMDLYNRRETVDKESYLASFDDIEKNDFNLNIPRYVDNFEKEEEVDINGLLEDMQKTDDEIGKVEGEFVNLLKDLTSSDENIMASLNRYIDMIEG | not soluble
13 | MAHHHHHHMKETLVFATARQQFLQHGYAIFSAAIGASLIERLRPALTASTVARARCFIDVPDIESMLKSKSRLSDPLYTKVMARLQRRKYMLRRYREEKKRRKQLKEVVANFLNGREKEDLTGEELWKLSELLAKEAVSVPGKECRSTIKNDPQMLRAINEYRCNVWMTNKELENIVRDPSFWQPIGAIASDVGGVERPVLFADAPMFREPYGGPFGYHCTAPSIGVKTNGNQPLAVSLLVFTHRPDKQKMPLFVLKGSHRFVQDQYLRYVLPNVLSLPFLPMESHIPEQIKRFNFDSSVVGSPIEGGDAIGPGTVVVLNPHLMIGVGANASTERVAVYKLNLIAENAPPFLKAPSWITAWRSLPREVNFASPVVFPPFYDKTMSTTSAR | not soluble
14 | MIFTTQVKYTYDTLSTFPEDMPSREGFTLISDHFGAGMLAPMEVVVNSKESMKSSLENVNGVASVTGPERSKGYQKYTLILKDNPYSNEAMDVVPKVRAAADKGNDVYIAGQTATQYDDRAVTEHDEKVIIPLEHHHHHH | soluble
15 | MSLHLNVAQQLYNAEITAGSLLLKESRAIAQLLLQSADETAWRQAIAIDNILQKTSPASAKRMSSLIRKRLELMPRELWSMIADGTTEVAIQSLMAAAIKHSRLLGDFMLKVLQRHYREFNPKILSREWDSFLAECAHIDPAVASWSQSTRKKVGQVAYRILSEAGYLDNTRSLKLQPVLIAPEVSKFLNSHDEKYILKCMEIAHEEGHHHHHH | soluble
16 | MEQLTKCEVFRELKDLKGYGGVSLPEWVCTTFHTSGYDTQAIVQNNDSTEYGLFQINNKIWCKDDQNPHSSNICNISCDKFLDDDLTDDIVCVKKILDKVGINYWLAHKALCSEKLDQWLCEKL | soluble
17 | MGLEKVVLTGLGAGLIAVAARGQNPLATALKIEQNDEGETVVRDAVTIGKPAEQLYAVWRDLPGLPLLMTHLRSVEVLDDKRSRWTVEAPAPLGTVSWEAELTADEPGKRIAWRSLPGARIENSGEVLFRPAPGARGTEVVVRLTYRPPGGSAGAVIARMFNQEPSQQLRDDLMRFKREQELGLEHHHHHH | soluble
18 | MRIVTAAVMASTLAVSSLSHAAEVGSGDNWHPGEELTQRSTQSHMFDGISLTEHQRQQMRDLMQQARHEQPPVNVSELETMHRLVTAENFDENAVRAQAEKMANEQIARQVEMAKVRNQMYRLLTPEQQAVLNEKHQQRMEQLRDVTQWQKSSSLKLLSSSNSRSQMAGDPLEHHHHHH | not soluble
19 | DLKILDPIWTTAYITRNHGYMVYDTLFSLDAQGNIQPQMVDTVTTSEDGLMVTMTLRDGLVWHDGAPVTAADCVASINRWGSKDAMGQKMMSFVESLEATDDKTITFKLSTPTGLVTLALAKPSSNVPFMMPERVASTPSSEQIADYTGSGPFVFRQ | not soluble
20 | QDLLLSYKGKLKNDSIEGEFRQGRFGTMMSLYRGLDAAKPYRPQTPVPPFPYDVTDVKILHKTGGFTIAGTLTAPKDANKTKGTVILISGSGLQDRDETIFGHKPFAVLADQLTRHGYAVLRCDDRGFGESAGDASQATTDTLAGDIESELAYLRQHYPRLTDKVFLIGHSEGGIIAPMVARRVGGIAGLVLVGAPSVKGAEILLSQNAAMDEFATGQPQSQAKRAALEELIRQATAPGDTSDIRTRIESYCRSNASVLFPQAMTDEMKEQGIKLMTEQLYTPWMRHFLTYDPAPLLDVTSGEGSHPLPPTMAIYGGRDKQVLHEVNMSKMKSLLGIETGNTTNKVVYLPEVNHIMQPAEFGTPDEYAFLNRTVDTELMEIVCSFLDSL | not soluble
21 | MESENQIAILDYIFNQVNQPNQPKIVWFSGEGEDEKINFLIRLNDFFKPKFVENTNDSSFLLSFRNHVETKNSTPLTQANFANIANKLLAVLFGSLQWKQLNK | not soluble
22 | MRSPDSDRPVHRMRALREAVSDADSHSRRGGRMIAREWQFALPEKKHKKKYFGNLKAEVIDAGLCCHCAACASICPVNGITAGDAPIDFPNWVKECVDCGACIKVCPRWEYTPKNGLGEYIEVVAARSKRFVGQDGAMVTEFTASALEMGIIERAIFVARDSNWRTRVVTIKTPEQLYDRKITGTKYSYADVLPALKEAVLKSEAVGFVGTPCMVSAVRKMQQAFKKFERVKLAIGLFCTENFYHHDLYKFLLEKANADLRNAVKTDIKKGKFIVEMKDGSKVRIPVKDFEEIIPSGCKVCQDFAAVESDVSVGSVGSPNRFSTVMVRTEVAKQILDYIREKDYAEFGEAKLDIVQKLCDHKMKIHPWPPKKKEEKSEELEHHHHHH | soluble
23 | KNTPVRMRGTLQDITERTKIEDSLLLSEERYRSFIQNFTGIAFQQDEDLNLEFVKGNVEEITGYSEEELMSKKRWRKIVEKQDLPLFLKKEREIKNARSPYSGKLSYRIRCKDGKIKWVHEVYQKIPGKN | not soluble
